Experimental data as given in patent US20140378382A1 (WISCONSIN ALUMNI RESEARCH FOUNDATION, published 2014).
Like-named read-outs stand apart in the source and are kept apart here. Non-standard residues stand in square brackets, D forms with d. No end group written: not given here. APC = aminopyrrolidine carboxylic acid (2-aminopyrrolidine-4-carboxylic acid); ACPC = 2-aminocyclopentane carboxylic acid; hArg = N=C(N)NCCCC[C@H](N)C(=O)O; β3hQ = NC(=O)CC[C@H](N)CC(=O)O; β3hS = N[C@@H](CO)CC(=O)O; β3hA = C[C@H](N)CC(=O)O; Aib = CC(C)(N)C(=O)O

T1: human parathyroid hormone receptor 1, wild-type (hPTHR-1) (human, UniProt Q03431 27-593)
T1 sequence (looked up): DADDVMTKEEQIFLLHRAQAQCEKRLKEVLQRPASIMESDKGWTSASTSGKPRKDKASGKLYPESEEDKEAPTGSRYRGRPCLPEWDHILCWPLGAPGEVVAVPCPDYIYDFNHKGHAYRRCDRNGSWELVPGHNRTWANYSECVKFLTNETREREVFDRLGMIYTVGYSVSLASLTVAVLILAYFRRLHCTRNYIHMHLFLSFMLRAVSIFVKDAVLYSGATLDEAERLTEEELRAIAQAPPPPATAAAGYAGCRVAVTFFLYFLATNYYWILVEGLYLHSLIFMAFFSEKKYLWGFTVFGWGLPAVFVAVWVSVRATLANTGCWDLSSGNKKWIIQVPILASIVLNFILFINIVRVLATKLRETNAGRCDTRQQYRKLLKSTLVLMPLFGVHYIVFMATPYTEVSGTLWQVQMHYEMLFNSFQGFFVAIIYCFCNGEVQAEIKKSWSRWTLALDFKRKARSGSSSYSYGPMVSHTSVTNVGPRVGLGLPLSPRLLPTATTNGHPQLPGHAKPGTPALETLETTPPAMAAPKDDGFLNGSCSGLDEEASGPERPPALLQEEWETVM

T2: delNT PTHR1 (human, UniProt Q03431 27-593)
T2 sequence (looked up): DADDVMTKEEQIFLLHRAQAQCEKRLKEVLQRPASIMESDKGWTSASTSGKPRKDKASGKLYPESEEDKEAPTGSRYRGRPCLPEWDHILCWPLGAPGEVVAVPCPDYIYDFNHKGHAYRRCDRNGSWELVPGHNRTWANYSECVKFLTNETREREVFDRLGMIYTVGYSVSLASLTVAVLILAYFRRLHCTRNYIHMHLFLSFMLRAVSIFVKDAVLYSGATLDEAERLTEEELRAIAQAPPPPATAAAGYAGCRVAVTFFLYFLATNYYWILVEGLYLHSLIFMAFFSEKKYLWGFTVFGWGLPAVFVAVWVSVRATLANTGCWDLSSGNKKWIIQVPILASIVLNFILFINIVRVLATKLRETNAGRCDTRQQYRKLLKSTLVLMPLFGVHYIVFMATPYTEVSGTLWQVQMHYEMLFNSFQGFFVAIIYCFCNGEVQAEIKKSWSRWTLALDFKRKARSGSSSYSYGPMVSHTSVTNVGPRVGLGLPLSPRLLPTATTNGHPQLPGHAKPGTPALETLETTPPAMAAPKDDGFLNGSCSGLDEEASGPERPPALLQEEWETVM

T3: rat parathyroid hormone receptor 1, wild-type (rPTHR-1) (rat, UniProt P25961 27-591)
T3 sequence (looked up): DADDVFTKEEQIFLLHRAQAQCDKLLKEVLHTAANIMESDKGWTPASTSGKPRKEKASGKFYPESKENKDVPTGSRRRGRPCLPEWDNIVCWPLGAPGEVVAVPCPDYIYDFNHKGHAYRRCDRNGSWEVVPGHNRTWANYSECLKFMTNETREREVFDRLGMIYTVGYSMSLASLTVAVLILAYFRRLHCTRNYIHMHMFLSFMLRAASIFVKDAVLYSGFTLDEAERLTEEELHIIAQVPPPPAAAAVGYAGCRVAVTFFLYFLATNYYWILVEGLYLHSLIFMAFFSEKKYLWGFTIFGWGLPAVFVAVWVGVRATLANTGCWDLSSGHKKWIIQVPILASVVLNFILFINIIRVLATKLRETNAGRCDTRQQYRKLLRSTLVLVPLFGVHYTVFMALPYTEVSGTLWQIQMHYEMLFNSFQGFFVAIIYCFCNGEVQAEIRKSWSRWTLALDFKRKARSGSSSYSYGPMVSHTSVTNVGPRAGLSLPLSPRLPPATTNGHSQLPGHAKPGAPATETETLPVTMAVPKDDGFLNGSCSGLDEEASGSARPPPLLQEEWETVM

T4: PTHR-1 (species and cells not stated for the assay) (Homo sapiens (Human), UniProt Q03431 27-593)
T4 sequence: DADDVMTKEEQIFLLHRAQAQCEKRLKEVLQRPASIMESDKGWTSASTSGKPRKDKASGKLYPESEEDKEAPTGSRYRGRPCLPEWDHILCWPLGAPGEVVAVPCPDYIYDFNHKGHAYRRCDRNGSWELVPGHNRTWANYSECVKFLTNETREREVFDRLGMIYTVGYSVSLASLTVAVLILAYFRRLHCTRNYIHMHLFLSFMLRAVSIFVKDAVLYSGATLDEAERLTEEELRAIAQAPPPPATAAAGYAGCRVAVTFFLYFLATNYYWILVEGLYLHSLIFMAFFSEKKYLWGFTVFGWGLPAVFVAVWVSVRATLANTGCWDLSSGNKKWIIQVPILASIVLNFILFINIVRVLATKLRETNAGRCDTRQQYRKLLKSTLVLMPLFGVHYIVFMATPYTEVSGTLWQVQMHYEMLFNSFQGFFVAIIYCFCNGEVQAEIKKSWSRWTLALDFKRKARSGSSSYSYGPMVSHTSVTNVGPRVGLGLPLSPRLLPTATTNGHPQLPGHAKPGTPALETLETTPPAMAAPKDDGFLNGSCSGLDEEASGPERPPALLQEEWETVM


Tests used:
Assay in all cases: cell-based or functional assay
[1] = target: T1, human parathyroid hormone receptor 1, …
delNT PTHR1 = target: T2, delNT PTHR1
[2] = target: T1, human parathyroid hormone receptor 1, …; remark: listed apart in the source
[3] = target: T1, human parathyroid hormone receptor 1, …; remark: listed apart in the source
[4] = target: T1, human parathyroid hormone receptor 1, …; remark: listed apart in the source
[5] = target: T3, rat parathyroid hormone receptor 1, …
[6] = target: T4, PTHR-1 (species and cells not stated …)
[7] = target: T3, rat parathyroid hormone receptor 1, …; remark: listed apart in the source
[8] = target: T3, rat parathyroid hormone receptor 1, …; parameters: AUC-on / AUC-washout: unit not given beside the values
[9] = target: T4, PTHR-1 (species and cells not stated …); remark: listed apart in the source

Fold PTH [1] | cAMP EC50 [1] | Fold PTH (delNT PTHR1) | cAMP EC50 (delNT PTHR1) | cAMP EC50 [2] | Binder | other results
1.9 fold | 0.17 nM | 65 fold | 4100 nM |  | SVSE[ACPC]QLMHNLGKHLNSMERVEWLRKKLQDVHNF-NH2 [ACPC(5) PTH(1-34)] | 
 |  |  |  | 4.69 nM | [ACPC]VSEHQ[ACPC]LHDKGKSIQDLRRRELLEKLL[Aib]KLHTA-NH2 [BA058 ACPC(1,7)] | 
 | 0.06 nM |  |  |  | [β3hS]VSEIQLMHNLGKHLNSMERVEWLRKKLQDVHNF-NH2 [β3Ser(1) PTH(1-34)] | 
 |  |  |  |  | SVSEIQLMHNLGKHLNSMERVEWLRKKLQDVHNF-NH2 (also: three β3 residues (αααβ pattern), positions not given here in text) [A3] | cAMP EC50 [3]: 0.29 nM; cAMP EC50 [4]: 0.29 nM; cAMP Max [5]: 74 cps × 10-3
126 fold | 11.5 nM | 130 fold | 7800 nM |  | SV[ACPC]EIQLMHNLGKHLNSMERVEWLRKKLQDVHNF-NH2 [ACPC(3) PTH(1-34)] | 
 |  |  |  |  | LMHNLGKHLNSMERVEWLRKKLQDVHNF-NH2 [hPTH(7-34)] | EC50(+)inhibitor/EC50(-)inhibitor [6]: 1.6 ratio; EC50 of PTH(1-34) signaling with 1 µM inhibitor [6]: 0.25 nM
 |  |  |  | 141 nM | [ACPC]VSEHQ[ACPC]LHDKGKSIQDLRRRELLEKLL[Aib]KLHT[ACPC]-NH2 (not fully specified; also: D6 β3 residues, positions not shown (marking lost)) [D6 BA058 ACPC(1,7)] | 
3.7 fold | 0.34 nM | 360 fold | 22000 nM |  | SVSEI[ACPC]LMHNLGKHLNSMERVEWLRKKLQDVHNF-NH2 [ACPC(6) PTH(1-34)] | 
 | 14.6 nM |  | 6700 nM |  | SVSEI[β3hQ]LMHNLGKHLNSMERVEWLRKKLQDVHNF-NH2 [β3Gln(6) PTH(1-34)] | 
2.2 fold | 0.2 nM | 0.4 fold | 25 nM |  | [β3hA]VSEIQLMHNLGKHLNSMERVEWLRKKLQDVHNF-NH2 (N-terminus assumed; SMILES CC[C@H](C)[C@H](NC(=O)[C@H](CCC(=O)O)NC(=O)[C@H](CO)NC(=O)[C@@H](NC(=O)C[C@H](C)N)C(C)C)C(=O)N[C@@H](CCC(N)=O)C(=O)N[C@@H](CC(C)C)C(=O)N[C@@H](CCSC)C(=O)N[C@@H](Cc1c[nH]cn1)C(=O)N[C@@H](CC(N)=O)C(=O)N[C@@H](CC(C)C)C(=O)NCC(=O)N[C@@H](CCCCN)C(=O)N[C@@H](Cc1c[nH]cn1)C(=O)N[C@@H](CC(C)C)C(=O)N[C@@H](CC(N)=O)C(=O)N[C@@H](CO)C(=O)N[C@@H](CCSC)C(=O)N[C@@H](CCC(=O)O)C(=O)N[C@@H](CCCNC(=N)N)C(=O)N[C@H](C(=O)N[C@@H](CCC(=O)O)C(=O)N[C@@H](Cc1c[nH]c2ccccc12)C(=O)N[C@@H](CC(C)C)C(=O)N[C@@H](CCCNC(=N)N)C(=O)N[C@@H](CCCCN)C(=O)N[C@@H](CCCCN)C(=O)N[C@@H](CC(C)C)C(=O)N[C@@H](CCC(N)=O)C(=O)N[C@@H](CC(=O)O)C(=O)N[C@H](C(=O)N[C@@H](Cc1c[nH]cn1)C(=O)N[C@@H](CC(N)=O)C(=O)N[C@@H](Cc1ccccc1)C(N)=O)C(C)C)C(C)C) [β3Ala(1) PTH(1-34)] | 
 |  |  |  |  | SVSEIQLMHNLGKHLNSMERVEWLRKKLQDVHNF-NH2 [PTH(1-34)] | cAMP Max [7]: 1 relative to PTH(1-34); cAMP Max [5]: 65 cps × 10-3; AUC-on [8]: 92000; AUC-washout [8]: 100000
 |  |  |  |  | AVAEIQLMHQ[hArg]AKWLNSMRRVEWLRKKLQDVHNF-NH2 (N-terminus assumed; SMILES CC[C@H](C)[C@H](NC(=O)[C@H](CCC(=O)O)NC(=O)[C@H](C)NC(=O)[C@@H](NC(=O)[C@H](C)N)C(C)C)C(=O)N[C@@H](CCC(N)=O)C(=O)N[C@@H](CC(C)C)C(=O)N[C@@H](CCSC)C(=O)N[C@@H](Cc1c[nH]cn1)C(=O)N[C@@H](CCC(N)=O)C(=O)N[C@@H](CCCCNC(=N)N)C(=O)N[C@@H](C)C(=O)N[C@@H](CCCCN)C(=O)N[C@@H](Cc1c[nH]c2ccccc12)C(=O)N[C@@H](CC(C)C)C(=O)N[C@@H](CC(N)=O)C(=O)N[C@@H](CO)C(=O)N[C@@H](CCSC)C(=O)N[C@@H](CCCNC(=N)N)C(=O)N[C@@H](CCCNC(=N)N)C(=O)N[C@H](C(=O)N[C@@H](CCC(=O)O)C(=O)N[C@@H](Cc1c[nH]c2ccccc12)C(=O)N[C@@H](CC(C)C)C(=O)N[C@@H](CCCNC(=N)N)C(=O)N[C@@H](CCCCN)C(=O)N[C@@H](CCCCN)C(=O)N[C@@H](CC(C)C)C(=O)N[C@@H](CCC(N)=O)C(=O)N[C@@H](CC(=O)O)C(=O)N[C@H](C(=O)N[C@@H](Cc1c[nH]cn1)C(=O)N[C@@H](CC(N)=O)C(=O)N[C@@H](Cc1ccccc1)C(N)=O)C(C)C)C(C)C) [M-PTH(1-34)] | Fold PTH [9]: 4.2 fold; cAMP EC50 [9]: 0.34 nM; AUC Ratio [8]: 14.8; AUC-on [8]: 43000; AUC-washout [8]: 640000
 |  |  |  | 18.9 nM | [ACPC]VSEHQ[ACPC]LHDKGK[ACPC]IQD[ACPC]RRR[APC]LLE[APC]LL[Aib][ACPC]LHT[ACPC]-NH2 [CycD6 BA058 ACPC(1,7)] | 
1.6 fold | 0.15 nM | 8 fold | 500 nM |  | [ACPC]VSEIQLMHNLGKHLNSMERVEWLRKKLQDVHNF-NH2 [ACPC(1) PTH(1-34)] | 
 |  |  |  | 0.65 nM | [ACPC]VSE[ACPC]Q[ACPC]LHDKGK[ACPC]IQD[ACPC]RRR[APC]LLE[APC]LL[Aib][ACPC]LHT[ACPC]-NH2 [CycD6 BA058 ACPC(1,5,7)] | 
3 fold | 0.27 nM | 170 fold | 11000 nM |  | S[ACPC]SEIQLMHNLGKHLNSMERVEWLRKKLQDVHNF-NH2 [ACPC(2) PTH(1-34)] | 
 |  |  |  | 0.26 nM | [ACPC]VSE[ACPC]Q[ACPC]LHDKGKSIQDLRRRELLEKLL[Aib]KLHTA-NH2 [BA058 ACPC(1,5,7)] | 
107 fold | 9.74 nM | 480 fold | 29000 nM |  | SVSEIQL[ACPC]HNLGKHLNSMERVEWLRKKLQDVHNF-NH2 [ACPC(8) PTH(1-34)] | 
 |  |  |  | 0.18 nM | AVSEHQLLHDKGK[ACPC]IQD[ACPC]RRR[APC]LLE[APC]LL[Aib][ACPC]LHT[ACPC]-NH2 [CycD6 BA058] | 
